The record followed here is paper PMC3289617, “Biochemical, Mutational and In Silico Structural Evidence for a Functional Dimeric Form of the Ornithine Decarboxylase from Entamoeba histolytica” (PLoS Neglected Tropical Diseases, 2012).

Series [1] deals with EhODC Gly361Tyr mutant (Entamoeba histolytica). Kind of series: SEC; HiLoad 16/60 Superdex 200, buffer B (50 mM Tris-HCl pH 7.5, 250 mM NaCl, 0.2 mM DTT, 5% glycerol), 500 µl of ~10 mg/ml protein, 0.5 ml/min, calibrated with HMW standards; the wild type was also run after 4 h at 4°C with 2 M or 4 M NaCl or urea (partial dissociation to monomer).
Series [2] addresses EhODC Cys334Ala mutant (Entamoeba histolytica). Kind of series: SEC; gel filtration of the active-site mutants, data not shown. For orientation: Size exclusion chromatography separates by hydrodynamic size, large species first.
In series [3] the target is EhODC Lys157Ala mutant (Entamoeba histolytica). The series can be described thus: SEC; HiLoad 16/60 Superdex 200, buffer B (50 mM Tris-HCl pH 7.5, 250 mM NaCl, 0.2 mM DTT, 5% glycerol), 500 µl of ~10 mg/ml protein, 0.5 ml/min, calibrated with HMW standards; the wild type was also run after 4 h at 4°C with 2 M or 4 M NaCl or urea (partial dissociation to monomer).
Series [4] has as its target EhODC Cys334Ala mutant (Entamoeba histolytica).
The target in series [5] is EhODC Lys57Ala mutant (Entamoeba histolytica). Kind of series: SEC; gel filtration of the active-site mutants, data not shown.
Series [6] deals with the molecule itself. The series can be described thus: cross-linking; glutaraldehyde vapour (12.5%, acidified) over a hanging drop of 15 µl protein at 1 mg/ml in 20 mM sodium phosphate pH 7.5, 37°C, 10 min; 12% SDS-PAGE, Coomassie.

With EhODC Gly361Tyr mutant (enzyme), in series [1], the stoichiometry N amounted to 2. EhODC Cys334Ala mutant (enzyme) displayed a stoichiometry N in series [2] of 2.

Take EhODC Lys157Ala mutant (enzyme): in series [3], the stoichiometry N amounted to 2. The molecule EhODC Lys57Ala mutant (enzyme) had an ornithine decarboxylase activity (colorimetric DAO/HRP assay) of the two inactive mutants mixed in equal concentration (1:1), relative to wild type; each mutant alone ~2% (% of wild-type activity) in series [4] of 29. The same molecule showed a stoichiometry N in series [5] of 2.

B1: Ornithine decarboxylase from Entamoeba histolytica (EhODC), wild type (enzyme, UniProt Q58P26 1-413, looked up)
chain: MKQTSLEVKEFALNLISQFEPENQPLGFWIFDTEGVEKAVERWKKNMPTVRPCFAVKCNPEPHLVKLLGELGCGFDCASLNEIKEVLDLGFNPEDITYSQTFKPYNQLIEASHLGINHTIVDSIDEVQKIAKYAPKMGIMIRIMENDTSAGHVFGEKFGLHDDEVEIVLKEIKDKGLNLDGVHFHVGSDSHNSEVFTKALTKARNTVTLAEQFGMKPYLIDIGGGFSQVAPFEEFAATIEKTIKELEFPERTRFIAEPGRYMASNAFHLVSSLHGKRVRIQNGKKQIEYTSGDGLHGSFGCCIWFEKQKSCECITQKVNENTKMYESIIYGPSCNGSDKVATQELPEMEPGKDWLLFPNMGAYTISMATNFNGFEERNHVIYTLPLKSTKIIQIPKSIECNSVPSLNGIPHYA
notes: Ornithine decarboxylase, Entamoeba histolytica, NCBI AAX35675, 413 amino acids, predicted 46.43 kDa; full-length gene in pET30a; The His tag is followed by an enterokinase site and was removed before gel filtration; PLP is the cofactor; also called E. histolytica ODC; source: E. coli BL21 (DE3), purified (HisTrap HP, enterokinase cleavage, second HisTrap, Superdex 200); not shown: His6, …
Turning to B1, in series [6], the “stoichiometry N” value is 2.

Usually stoichiometry N stands for the number of molecules, sites or subunits per partner or assembly.
